Test results reported in article PMC6534634, “Understanding xylose isomerase from Burkholderia cenocepacia: insights into structure and functionality for ethanol production” (AMB Express, 2019).

T1: XylABc (XylA, xylose isomerase from Burkholderia cenocepacia) (Burkholderia cenocepacia, UniProt B4ENA5)
T1 construct: full-length, synthetic gene in pTrcHis-B, His6 fusion (tag apparently kept), E. coli TOP10, Ni resin + Superdex 200; homotetramer ca. 208 kDa
T1 sequence (B4ENA5 1-440): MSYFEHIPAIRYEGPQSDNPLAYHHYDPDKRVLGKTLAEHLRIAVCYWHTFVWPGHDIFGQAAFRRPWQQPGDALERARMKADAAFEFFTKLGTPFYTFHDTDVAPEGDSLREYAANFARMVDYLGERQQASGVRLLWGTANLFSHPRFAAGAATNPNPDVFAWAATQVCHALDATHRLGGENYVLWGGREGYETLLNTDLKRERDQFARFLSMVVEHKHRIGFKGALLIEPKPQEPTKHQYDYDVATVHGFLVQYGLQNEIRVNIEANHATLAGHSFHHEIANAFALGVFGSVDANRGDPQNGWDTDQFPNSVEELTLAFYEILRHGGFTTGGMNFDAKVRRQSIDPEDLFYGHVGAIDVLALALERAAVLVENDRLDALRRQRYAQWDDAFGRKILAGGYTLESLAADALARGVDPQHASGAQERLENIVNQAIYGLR

B1: Xylose isomerase from Burkholderia cenocepacia (His6-XylA fusion protein) (enzyme, Burkholderia cenocepacia J2315, UniProt B4ENA5 1-440, looked up)
chain: T1 sequence (B4ENA5 1-440)
notes: Xylose isomerase XylA of Burkholderia cenocepacia J2315, full-length gene made as synthetic DNA, cloned HindIII/BglII into pTrcHis-B; The fusion has a printed theoretical mass of 53,598.67 Da; also called XylABc; XI; source: E. coli TOP10, purified (Ni2+ resin, Superdex 200)

Assays:
[1] = target: T1, XylABc (XylA, xylose isomerase from Burkholderia cenocepacia); assay: sorbitol dehydrogenase-coupled NADH oxidation, […] nm; type: biochemical
[2] = target: the molecule itself; assay: SDS-PAGE (SDS-resistant oligomer); SDS-PAGE (5% stacking, 12% resolving) after size exclusion; loading dye with 8 M urea, 4% SDS, 100 mM beta-mercaptoethanol; bands identified by LC-MS/MS; dimer beside monomer
[3] = target: the molecule itself; assay: native gel or EMSA; non-denaturing 4-20% gradient PAGE of the pooled Superdex 200 peak of His6-XylA, SDS-free sample and running buffers, standards 10-250 kDa; band identified by LC-MS/MS; tetramer

| Molecule | IC50 [1] [mM] | stoichiometry N [2] | stoichiometry N [3] |
| --- | --- | --- | --- |
| OC[C@@H](O)[C@H](O)[C@@H](O)CO [xylitol] | 3.75 | – | – |
| B1 | – | 2 | 4 |
